# Reference: US10005829B2, “Synthetic linear apelin mimetics for the treatment of heart failure” (priority 2012, dated 2018)
# [ ]: non-standard residue; d: D form. pGlu = O=C1CC[C@@H](C(=O)O)N1; dNle = CCCC[C@@H](N)C(=O)O; dNva = CCC[C@@H](N)C(=O)O; Nle = CCCC[C@H](N)C(=O)O; Aib = CC(C)(N)C(=O)O
# T1: APJ receptor (human, UniProt P35414 1-380)
# T1 sequence (looked up): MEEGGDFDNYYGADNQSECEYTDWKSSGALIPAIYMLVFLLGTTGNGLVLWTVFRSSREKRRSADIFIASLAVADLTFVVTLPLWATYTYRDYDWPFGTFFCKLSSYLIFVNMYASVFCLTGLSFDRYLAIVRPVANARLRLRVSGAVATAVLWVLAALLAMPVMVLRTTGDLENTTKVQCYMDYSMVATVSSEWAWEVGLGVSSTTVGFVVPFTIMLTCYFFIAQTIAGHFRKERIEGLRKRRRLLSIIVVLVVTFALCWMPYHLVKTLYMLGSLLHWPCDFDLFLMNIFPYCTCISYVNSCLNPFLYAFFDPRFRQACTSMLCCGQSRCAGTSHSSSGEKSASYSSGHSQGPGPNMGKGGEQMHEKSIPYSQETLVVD
# B1: pE-R-P-R-L-a-H-K-G-P-nva-a-f-OH (peptide)
# peptide: [pGlu]RPRL[dA]HKGP[dNva][dA][dF]-OH
# SMILES: CCC[C@@H](NC(=O)[C@@H]1CCCN1C(=O)CNC(=O)[C@H](CCCCN)NC(=O)[C@H](Cc1c[nH]cn1)NC(=O)[C@@H](C)NC(=O)[C@H](CC(C)C)NC(=O)[C@H](CCCNC(=N)N)NC(=O)[C@@H]1CCCN1C(=O)[C@H](CCCNC(=N)N)NC(=O)[C@@H]1CCC(=O)N1)C(=O)N[C@H](C)C(=O)N[C@H](Cc1ccccc1)C(=O)O
# B2: pE-R-P-R-L-a-L-K-G-P-nle-a-f-OH (peptide)
# peptide: [pGlu]RPRL[dA]LKGP[dNle][dA][dF]-OH
# SMILES: CCCC[C@@H](NC(=O)[C@@H]1CCCN1C(=O)CNC(=O)[C@H](CCCCN)NC(=O)[C@H](CC(C)C)NC(=O)[C@@H](C)NC(=O)[C@H](CC(C)C)NC(=O)[C@H](CCCNC(=N)N)NC(=O)[C@@H]1CCCN1C(=O)[C@H](CCCNC(=N)N)NC(=O)[C@@H]1CCC(=O)N1)C(=O)N[C@H](C)C(=O)N[C@H](Cc1ccccc1)C(=O)O
# B3: pE-R-P-R-L-a-H-K-G-P-nle-f-OH (peptide)
# peptide: ERPRLAHKGPLF
# modifications: pE at 1; D-Ala at 6; D-Nle at 11; D-Phe at 12
# B4: pE-R-P-R-L-S-Aib-K-G-P-Nle-P-f-OH (peptide)
# peptide: ERPRLSXKGPLPF
# modifications: pE at 1; Aib at 7; Nle (L-norleucine) at 11; D-Phe at 13
# B5: pE-R-P-R-L-S-f-K-G-P-nle-a-f-OH (peptide)
# peptide: [pGlu]RPRLS[dF]KGP[dNle][dA][dF]-OH
# SMILES: CCCC[C@@H](NC(=O)[C@@H]1CCCN1C(=O)CNC(=O)[C@H](CCCCN)NC(=O)[C@@H](Cc1ccccc1)NC(=O)[C@H](CO)NC(=O)[C@H](CC(C)C)NC(=O)[C@H](CCCNC(=N)N)NC(=O)[C@@H]1CCCN1C(=O)[C@H](CCCNC(=N)N)NC(=O)[C@@H]1CCC(=O)N1)C(=O)N[C@H](C)C(=O)N[C@H](Cc1ccccc1)C(=O)O
# B6: pE-R-P-R-L-nva-H-K-G-P-nle-a-f-OH (peptide)
# peptide: [pGlu]RPRL[dNva]HKGP[dNle][dA][dF]-OH
# SMILES: CCCC[C@@H](NC(=O)[C@@H]1CCCN1C(=O)CNC(=O)[C@H](CCCCN)NC(=O)[C@H](Cc1c[nH]cn1)NC(=O)[C@@H](CCC)NC(=O)[C@H](CC(C)C)NC(=O)[C@H](CCCNC(=N)N)NC(=O)[C@@H]1CCCN1C(=O)[C@H](CCCNC(=N)N)NC(=O)[C@@H]1CCC(=O)N1)C(=O)N[C@H](C)C(=O)N[C@H](Cc1ccccc1)C(=O)O
# B7: pE-R-P-R-L-a-H-K-G-P-f-a-f-OH (peptide)
# peptide: [pGlu]RPRL[dA]HKGP[dF][dA][dF]-OH
# SMILES: CC(C)C[C@H](NC(=O)[C@H](CCCNC(=N)N)NC(=O)[C@@H]1CCCN1C(=O)[C@H](CCCNC(=N)N)NC(=O)[C@@H]1CCC(=O)N1)C(=O)N[C@H](C)C(=O)N[C@@H](Cc1c[nH]cn1)C(=O)N[C@@H](CCCCN)C(=O)NCC(=O)N1CCC[C@H]1C(=O)N[C@H](Cc1ccccc1)C(=O)N[C@H](C)C(=O)N[C@H](Cc1ccccc1)C(=O)O
# B8: pE-R-P-R-L-a-H-K-G-P-nle-abu-f-OH (peptide)
# peptide: ERPRLAHKGPLXF
# modifications: pE at 1; D-Ala at 6; D-Nle at 11; D-Abu at 12; D-Phe at 13
# B9: pE-R-P-R-L-abu-H-K-G-P-nle-a-f-OH (peptide)
# peptide: ERPRLXHKGPLAF
# modifications: pE at 1; D-Abu at 6; D-Nle at 11; D-Ala at 12; D-Phe at 13
# B10: pE-R-P-R-L-a-a-K-G-P-nle-a-f-OH (peptide)
# peptide: [pGlu]RPRL[dA][dA]KGP[dNle][dA][dF]-OH
# SMILES: CCCC[C@@H](NC(=O)[C@@H]1CCCN1C(=O)CNC(=O)[C@H](CCCCN)NC(=O)[C@@H](C)NC(=O)[C@@H](C)NC(=O)[C@H](CC(C)C)NC(=O)[C@H](CCCNC(=N)N)NC(=O)[C@@H]1CCCN1C(=O)[C@H](CCCNC(=N)N)NC(=O)[C@@H]1CCC(=O)N1)C(=O)N[C@H](C)C(=O)N[C@H](Cc1ccccc1)C(=O)O
# B11: pE-R-P-R-L-a-f-K-G-P-nle-a-f-OH (peptide)
# peptide: [pGlu]RPRL[dA][dF]KGP[dNle][dA][dF]-OH
# SMILES: CCCC[C@@H](NC(=O)[C@@H]1CCCN1C(=O)CNC(=O)[C@H](CCCCN)NC(=O)[C@@H](Cc1ccccc1)NC(=O)[C@@H](C)NC(=O)[C@H](CC(C)C)NC(=O)[C@H](CCCNC(=N)N)NC(=O)[C@@H]1CCCN1C(=O)[C@H](CCCNC(=N)N)NC(=O)[C@@H]1CCC(=O)N1)C(=O)N[C@H](C)C(=O)N[C@H](Cc1ccccc1)C(=O)O
# B12: H-R-P-R-L-a-H-K-G-P-nle-f-OH (peptide)
# peptide: H-RPRL[dA]HKGP[dNle][dF]-OH
# SMILES: CCCC[C@@H](NC(=O)[C@@H]1CCCN1C(=O)CNC(=O)[C@H](CCCCN)NC(=O)[C@H](Cc1c[nH]cn1)NC(=O)[C@@H](C)NC(=O)[C@H](CC(C)C)NC(=O)[C@H](CCCNC(=N)N)NC(=O)[C@@H]1CCCN1C(=O)[C@@H](N)CCCNC(=N)N)C(=O)N[C@H](Cc1ccccc1)C(=O)O
# B13: pE-R-P-R-L-S-h-K-G-P-nle-a-f-OH (peptide)
# peptide: [pGlu]RPRLS[dH]KGP[dNle][dA][dF]-OH
# SMILES: CCCC[C@@H](NC(=O)[C@@H]1CCCN1C(=O)CNC(=O)[C@H](CCCCN)NC(=O)[C@@H](Cc1c[nH]cn1)NC(=O)[C@H](CO)NC(=O)[C@H](CC(C)C)NC(=O)[C@H](CCCNC(=N)N)NC(=O)[C@@H]1CCCN1C(=O)[C@H](CCCNC(=N)N)NC(=O)[C@@H]1CCC(=O)N1)C(=O)N[C@H](C)C(=O)N[C@H](Cc1ccccc1)C(=O)O
# B14: pE-R-P-R-L-S-Aib-K-G-P-nle-a-f-OH (peptide)
# peptide: [pGlu]RPRLS[Aib]KGP[dNle][dA][dF]-OH
# SMILES: CCCC[C@@H](NC(=O)[C@@H]1CCCN1C(=O)CNC(=O)[C@H](CCCCN)NC(=O)C(C)(C)NC(=O)[C@H](CO)NC(=O)[C@H](CC(C)C)NC(=O)[C@H](CCCNC(=N)N)NC(=O)[C@@H]1CCCN1C(=O)[C@H](CCCNC(=N)N)NC(=O)[C@@H]1CCC(=O)N1)C(=O)N[C@H](C)C(=O)N[C@H](Cc1ccccc1)C(=O)O
# B15: pE-R-P-R-L-S-a-K-G-P-nle-a-f-OH (peptide)
# peptide: [pGlu]RPRLS[dA]KGP[dNle][dA][dF]-OH
# SMILES: CCCC[C@@H](NC(=O)[C@@H]1CCCN1C(=O)CNC(=O)[C@H](CCCCN)NC(=O)[C@@H](C)NC(=O)[C@H](CO)NC(=O)[C@H](CC(C)C)NC(=O)[C@H](CCCNC(=N)N)NC(=O)[C@@H]1CCCN1C(=O)[C@H](CCCNC(=N)N)NC(=O)[C@@H]1CCC(=O)N1)C(=O)N[C@H](C)C(=O)N[C@H](Cc1ccccc1)C(=O)O
# B16: pE-R-P-R-L-a-H-Q-G-P-nle-a-f-OH (peptide)
# peptide: [pGlu]RPRL[dA]HQGP[dNle][dA][dF]-OH
# SMILES: CCCC[C@@H](NC(=O)[C@@H]1CCCN1C(=O)CNC(=O)[C@H](CCC(N)=O)NC(=O)[C@H](Cc1c[nH]cn1)NC(=O)[C@@H](C)NC(=O)[C@H](CC(C)C)NC(=O)[C@H](CCCNC(=N)N)NC(=O)[C@@H]1CCCN1C(=O)[C@H](CCCNC(=N)N)NC(=O)[C@@H]1CCC(=O)N1)C(=O)N[C@H](C)C(=O)N[C@H](Cc1ccccc1)C(=O)O
# B17: pE-R-P-R-L-S-Aib-K-G-P-Nle-a-F-OH (peptide)
# peptide: [pGlu]RPRLS[Aib]KGP[Nle][dA]F-OH
# SMILES: CCCC[C@H](NC(=O)[C@@H]1CCCN1C(=O)CNC(=O)[C@H](CCCCN)NC(=O)C(C)(C)NC(=O)[C@H](CO)NC(=O)[C@H](CC(C)C)NC(=O)[C@H](CCCNC(=N)N)NC(=O)[C@@H]1CCCN1C(=O)[C@H](CCCNC(=N)N)NC(=O)[C@@H]1CCC(=O)N1)C(=O)N[C@H](C)C(=O)N[C@@H](Cc1ccccc1)C(=O)O
# B18: pE-R-P-R-L-A-h-K-G-P-nle-a-f-OH (peptide)
# peptide: [pGlu]RPRLA[dH]KGP[dNle][dA][dF]-OH
# B19: pE-R-a-R-L-a-H-K-G-P-nle-a-f-OH (peptide)
# peptide: [pGlu]R[dA]RL[dA]HKGP[dNle][dA][dF]-OH
# SMILES: CCCC[C@@H](NC(=O)[C@@H]1CCCN1C(=O)CNC(=O)[C@H](CCCCN)NC(=O)[C@H](Cc1c[nH]cn1)NC(=O)[C@@H](C)NC(=O)[C@H](CC(C)C)NC(=O)[C@H](CCCNC(=N)N)NC(=O)[C@@H](C)NC(=O)[C@H](CCCNC(=N)N)NC(=O)[C@@H]1CCC(=O)N1)C(=O)N[C@H](C)C(=O)N[C@H](Cc1ccccc1)C(=O)O
# B20: pE-R-P-R-L-a-H-K-G-P-nle-nva-f-OH (peptide)
# peptide: [pGlu]RPRL[dA]HKGP[dNle][dNva][dF]-OH
# SMILES: CCCC[C@@H](NC(=O)[C@@H]1CCCN1C(=O)CNC(=O)[C@H](CCCCN)NC(=O)[C@H](Cc1c[nH]cn1)NC(=O)[C@@H](C)NC(=O)[C@H](CC(C)C)NC(=O)[C@H](CCCNC(=N)N)NC(=O)[C@@H]1CCCN1C(=O)[C@H](CCCNC(=N)N)NC(=O)[C@@H]1CCC(=O)N1)C(=O)N[C@H](CCC)C(=O)N[C@H](Cc1ccccc1)C(=O)O
# B21: pE-R-P-R-L-S-Aib-k-G-P-nle-a-f-OH (peptide)
# peptide: [pGlu]RPRLS[Aib][dK]GP[dNle][dA][dF]-OH
# SMILES: CCCC[C@@H](NC(=O)[C@@H]1CCCN1C(=O)CNC(=O)[C@@H](CCCCN)NC(=O)C(C)(C)NC(=O)[C@H](CO)NC(=O)[C@H](CC(C)C)NC(=O)[C@H](CCCNC(=N)N)NC(=O)[C@@H]1CCCN1C(=O)[C@H](CCCNC(=N)N)NC(=O)[C@@H]1CCC(=O)N1)C(=O)N[C@H](C)C(=O)N[C@H](Cc1ccccc1)C(=O)O
# Target: T1, APJ receptor
# Assay: cell-based or functional assay
row,Binder,hAPJ Ca^2+ Flux EC50 [nM]
1,B1,8.7
2,B2,4.4
3,B3,3.1
4,B4,4.5
5,B5,72.8
6,B6,19.5
7,B7,1.5
8,B8,2.4
9,B9,3
10,B10,16.1
11,B11,9.2
12,B12,1.4
13,B13,6.8
14,B14,2
15,B15,8.5
16,B16,7.4
17,B17,2.4
18,B18,55.1
19,B19,623
20,B20,0.9
21,B21,79.9
